Tests used:
Experiment in all cases: cell-based or functional assay
[1] = target: SARS-CoV-2 Epsilon (B.1.427/9) full-length Spike protein (SARS-CoV-2) (UniProt P0DTC2)
[2] = target: SARS-CoV-2 Delta (B.1.617.2) full-length Spike protein (SARS-CoV-2) (UniProt P0DTC2)
[3] = target: SARS-CoV-2 Delta-plus (B.1.617.2.1) full-length Spike protein (SARS-CoV-2) (UniProt P0DTC2)
[4] = target: SARS-CoV-2 Beta (B.1.351) full-length Spike protein (SARS-CoV-2) (UniProt P0DTC2)
[5] = target: SARS-CoV-2 Alpha (B.1.1.7) full-length Spike protein (SARS-CoV-2) (UniProt P0DTC2)
[6] = target: SARS-CoV-2 Gamma (P.1.B.1.1.28) full-length Spike protein (SARS-CoV-2) (UniProt P0DTC2)

Measured: Pseudovirus Neutralization

Anti-Nucleocapsid (Neg Control) (antibody)
> 50 µg/mL: all assays above

Source: patent publication US20240025971A1
